Consider 6 molecules from patent US20230220053A1 (published 2023).

Where two headings read alike, the source gives them in different places. Bounds are passed on as bounds.

In assay [1] the target is T1, RBD of SARS-CoV-2 spike protein S1 (recombinant, construct not stated) (SARS-CoV-2, UniProt P0DTC2 328-533).
T1 construct: also called SARS-COV-2, RBD; RBD-AF647
The experiment in a line: ELISA, RBD coated, IgG1 titrated, anti-human Fc HRP. (In general: In an ELISA, binding on a coated surface is turned into a signal by an enzyme label.)

Assay [2] deals with T2, S1 protein of SARS-CoV-2 (recombinant, construct not stated) (SARS-CoV-2, UniProt P0DTC2 16-685).
For assay [3], the target named is T2, S1 protein of SARS-CoV-2 (recombinant, …). Briefly: ELISA, S1 coated, IgG1 titrated, anti-human Fc HRP.
Assay [4] concerns the target T3, S1 protein of SARS-COV (ACRO Biosciences) (SARS-COV, UniProt P59594 14-667).
T3 construct: domain: S1
Briefly: ELISA, SARS-COV S1 coated, IgG titrated, anti-human Fc HRP.

Assay [5] addresses T4, RBD of SARS-COV (ACRO Biosciences) (SARS-COV, UniProt P59594 306-527).
T4 construct: domain: RBD; also called RBD-SARS; SARS-COV, RBD
Briefly: ELISA, SARS-COV RBD coated, IgG titrated, anti-human Fc HRP.

For assay [6], the target named is T2, S1 protein of SARS-CoV-2 (recombinant, …). The source holds these as a separate data set.
Assay [7] has as its target S protein of SARS-COV-2 (Sino Biologics) (SARS-CoV-2, UniProt P0DTC2 16-1213). The experiment in a line: ELISA, S protein (Sino Biologics) coated, anti-human Fc HRP.
Assay [8] deals with T2, S1 protein of SARS-CoV-2 (recombinant, …). The experiment in a line: SPR (Biacore T200), IgG captured on protein A chip, S1 injected. In general terms: In SPR one partner is held on a chip, and binding of the other changes the refractive index at the surface.
Assay [9] concerns the target T1, RBD of SARS-CoV-2 spike protein S1 …. The experiment in a line: SPR (Biacore T200), IgG captured on protein A chip, RBD injected.
In assay [10] the target is T2, S1 protein of SARS-CoV-2 (recombinant, …). This is another data set of the same source.
Assay [11] has as its target T5, S1-Fc (SARS-CoV-2 S1 protein, Fc fusion) (SARS-CoV-2, UniProt P0DTC2 16-685). Briefly: SPR (Biacore T200), S1 captured on anti-human Fc chip, scFv injected.
The target of assay [12] is T1, RBD of SARS-CoV-2 spike protein S1 ….
For assay [13] the target is unchanged. Briefly: ELISA, RBD coated, scFv titrated, anti-Flag HRP.
Assay [14] deals with T6, SARS-CoV-2-RBD (328-533)-Fc (SARS-CoV-2).
T6 construct: also called RBD-Fc
Briefly: SPR (Biacore T200), RBD captured on anti-human Fc chip, scFv injected.

Assay [15] concerns the target T2, S1 protein of SARS-CoV-2 (recombinant, …). This is another data set of the same source.
Assay [16] shares this target. Briefly: ELISA, S1 coated, scFv titrated, anti-Flag HRP.
The target of assay [17] is T4, RBD of SARS-COV (ACRO Biosciences). The experiment in a line: SPR (Biacore T200), IgG captured on protein A chip, SARS-COV RBD injected.
Assay [18] concerns the target T3, S1 protein of SARS-COV (ACRO …). The experiment in a line: ELISA, SARS-COV S1 (ACRO) coated, anti-human Fc HRP.
For assay [19] the target is unchanged. Briefly: SPR (Biacore T200), IgG captured on protein A chip, SARS-COV S1 injected.
Assay [20] concerns the target HIS tagged S1 of SARS-CoV-2 (SARS-CoV-2, UniProt P0DTC2 16-685).
Assay [21] concerns the target SARS-CoV-2-RBD (328-533)-His (SARS-CoV-2, UniProt P0DTC2 328-533).
Assay [22] addresses T4, RBD of SARS-COV (ACRO Biosciences). Briefly: ELISA, SARS-COV RBD (ACRO) coated, anti-human Fc HRP.
In assay [23] the target is T6, SARS-CoV-2-RBD (328-533)-Fc. Briefly: SPR (Biacore T200), RBD captured on anti-human Fc chip, scFv injected. The source holds these as a separate data set.
Assay [24] deals with T5, S1-Fc (SARS-CoV-2 S1 protein, Fc fusion). The experiment in a line: SPR (Biacore T200), S1 captured on anti-human Fc chip, scFv injected. This is another data set of the same source.

The EC50 is the concentration needed to bring the measured effect to its halfway point. As a reminder, the IC50 is the concentration at which inhibition is half-maximal. The Kd is the concentration at which binding is half-saturated. As usually defined, the koff is a measure of how fast the partners let go of each other. One may read the kon as a measure of how fast the partners come together.

B1: 2020EP54-E12 IgG1 (antibody, V domains shown)
VH: EVQLVESGGGLVQPGGSLRLSCAVTGFIVSSNYMNWVRQAPGKGLEWVSVIYSGGTTYYADSVKGRFTISRDKSKNTLYLQMNNLRAEDTAMYYCATLGNDYGDYGTDYWGQGTLVTVSS
VL: QLVLTQPPSVSVSPGQTASISCSGDRLGQKYTSWYQQRPGQSPVLIMYQDNKRPSGIPERFSGSNSGNTATLTISGIQSMDEADYYCQVWDSGSDHAVFGGGTQLTVL
notes: also called 2020EP054-E12; EP054-E12, IgG1
With B1, the concentration for a half-maximal effect (EC50) came out at 0.053 nM in assay [1], 0.103 nM in assay [3] and 0.462 nM in assay [7]. For the same molecule, the figures for the IC50 in [2] and in assay [6] were 1.9 nM and 3.79 nM, respectively. Besides, the binding result in [4] and in assay [5] was “no binding (tested: 200 nM (highest concentration tested))” each time.

B2: 2020EP54-H01 IgG1 (antibody, V domains shown)
VH: QVQLVESGGGVVQPGRSLRLSCAASGFTFSSYGMHWVRQAPGKGLEWVAVISYDGSNKYYADSVKGRFTISRDNSKNTLYLQMNSLRAEDTAVYYCAKGRGWYLDYWGQGTLVTVSS
VL: NFMLTQPPSVSVSPGQTASITCSGDKLGDKYACWYQQKPGQSPVLVMYEDYKRPSGIPARFSGSNSGNTATLTISRVEGGDEGDYYCQVWDSRGPEVIFGGGTKLTVL
notes: also called 2020EP054-H01; EP054-H01, IgG1
B2: the results for the EC50 in assay [1], in assay [3] and in assay [7] were 0.101 nM, 0.101 nM and 11.5 nM, respectively. The binding result in [4] and in assay [5] was “no binding (tested: 200 nM (highest concentration tested))” throughout.

B3: 2020EP54-B12 IgG1 (antibody, V domains shown)
VH: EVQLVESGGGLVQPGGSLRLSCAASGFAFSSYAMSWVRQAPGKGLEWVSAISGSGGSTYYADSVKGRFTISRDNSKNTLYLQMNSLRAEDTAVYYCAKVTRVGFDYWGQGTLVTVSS
VL: SYELTQPPSVSVAPGKTARITCGGNNIGSKSVHWYQQKPGQAPVLVIYYDSDRPSGIPERFSGSNSGNTATLTISRVEAEDEADYYCQVWDSSSDVVFGGGTKLTVL
notes: also called 2020EP054-B12; EP054-B12, IgG1
As for B3, the EC50 in [1] was found to be 0.045 nM; in assay [3], 0.045 nM; in [7], 0.032 nM. For the same molecule, the Kd in [8] is 61.9 nM; in [9] it was 6.4 nM. The koff in assay [8] stood at 0.00507 s⁻¹; in assay [9], 0.00578 s⁻¹. Also, the kon in assay [8] is 82000 M⁻¹ s⁻¹; in assay [9], 903000 M⁻¹ s⁻¹. For the same molecule, the binding result in assay [4] and in assay [5] was “no binding (tested: 200 nM (highest concentration tested))” each time.

B4: 2020EP54-E12 scFv (scFv)
scFv: EVQLVESGGGLVQPGGSLRLSCAVTGFIVSSNYMNWVRQAPGKGLEWVSVIYSGGTTYYADSVKGRFTISRDKSKNTLYLQMNNLRAEDTAMYYCATLGNDYGDYGTDYWGQGTLVTVSSGGGGSGGGGSGGGGSQLVLTQPPSVSVSPGQTASISCSGDRLGQKYTSWYQQRPGQSPVLIMYQDNKRPSGIPERFSGSNSGNTATLTISGIQSMDEADYYCQVWDSGSDHAVFGGGTQLTVL
notes: also called 2020EP054-E12
Regarding B4, the IC50 in [10] amounted to 8.57 nM; in [12], 6.69 nM; in assay [15], 6.58 nM. Further, the Kd in [11] was determined as 13.2 nM; in [14], 9.61 nM. Moreover, the dissociation rate constant (koff) in assay [11] stood at 0.000687 s⁻¹; in assay [14], 0.000469 s⁻¹. The kon was 51900 M⁻¹ s⁻¹ in assay [11] and 48900 M⁻¹ s⁻¹ in assay [14]. For the same molecule, the EC50 was determined as 0.486 nM in assay [13] and 0.737 nM in [16].

B5: 2020EP54-E10 IgG1 (antibody, V domains shown)
VH: QVQLVQSGAEVRKPGSSVKVSCKASGGTFSSFAISWVRQAPGQGLEWMGGIIPIFDTATYAQNFQGRVRMTADESTNTAYMELSSLTSEDTAVYYCARSTSYYDSRGDYKVGDFDYWGQGTLVTVSS
VL: not shown
notes: also called 2020EP054-E10
On to B5, for which the EC50 is 0.08 nM in [1]; 0.084 nM in assay [3]; 0.027 nM in assay [18]; 0.035 nM in assay [22]; 0.0846 nM in assay [7]. Moreover, the Kd in assay [17] came to 3.69 nM; in assay [8], 1.15 nM; in [9] it was 0.131 nM; in [19], 57.1 nM; in assay [20], 2.3 nM; in assay [21] it was 0.554 nM. Further, the koff in [17] turned out to be 0.00675 s⁻¹; in assay [8] it was 0.000292 s⁻¹; in assay [9], 0.00032 s⁻¹; in assay [19] it was 0.00433 s⁻¹; in [20], 0.000498 s⁻¹; in assay [21], 0.000807 s⁻¹. For the same molecule, the kon was determined as 1.83e+06 M⁻¹ s⁻¹ in [17]; 254000 M⁻¹ s⁻¹ in assay [8]; 2.43e+06 M⁻¹ s⁻¹ in assay [9]; 75800 M⁻¹ s⁻¹ in assay [19]; 217000 M⁻¹ s⁻¹ in assay [20]; 1.46e+06 M⁻¹ s⁻¹ in [21]. Besides, the IC50 in assay [2] amounted to 2.71 nM; in assay [6], 0.774 nM.

B6: 2020EP54-E10 scFv (scFv)
scFv: QVQLVQSGAEVRKPGSSVKVSCKASGGTFSSFAISWVRQAPGQGLEWMGGIIPIFDTATYAQNFQGRVRMTADESTNTAYMELSSLTSEDTAVYYCARSTSYYDSRGDYKVGDFDYWGQGTLVTVSSGGGGSGGGGSGGGGSAIRMTQSPSSLSASVGDRVTITCQASQDISNYLNWYQQKPGKAPKLLIYDASNLETGVPSRFSGSGSGTDFTFTISSLQPEDIATYYCQQYDNLPLTFGGGTKVEIK
notes: also called 2020EP054-E10
With B6, the IC50 in [10] is 4.94 nM; in assay [12], below 1 nM; in assay [15] it was 4.69 nM. Moreover, the Kd turned out to be 3.35 nM in assay [11], 1.89 nM in assay [14], 1.9 nM in assay [23] and 3.35 nM in [24]. Also, the koff stood at 0.00106 s⁻¹ in assay [11], 0.000906 s⁻¹ in [14], 0.000906 s⁻¹ in assay [23] and 0.00106 s⁻¹ in assay [24]. Also, the kon in [11] came to 316000 M⁻¹ s⁻¹; in assay [14] it was 477000 M⁻¹ s⁻¹; in [23], 477000 M⁻¹ s⁻¹; in assay [24], 316000 M⁻¹ s⁻¹. The EC50 is 0.16 nM in [13] and 0.154 nM in [16].
